The chains are these.
B1: HCoV-OC43 Nucleocapsid (N) protein (2X-StrepTag tagged) (natural protein)
chain: MSFTPGKQSSSRASSGNRSGNGILKWADQSDQVRNVQTRGRRAQPKQTATSQQPSGGNVVPYYSWFSGITQFQKGKEFEFVEGQGPPIAPGVPATEAKGYWYRHNRGSFKTADGNQRQLLPRWYFYYLGTGPHAKDQYGTDIDGVYWVASNQADVNTPADIVDRDPSSDEAIPTRFPPGTVLPQGYYIEGSGRSAPNSRSTSRTSSRASSAGSRSRANSGNRTPTSGVTPDMADQIASLVLAKLGKDATKPQQVTKHTAKEVRQKILNKPRQKRSPNKQCTVQQCFGKRGPNQNFGGGEMLKLGTSDPQFPILAELAPTAGAFFFGSRLELAKVQNLSGNPDEPQKDVYELRYNGAIRFDSTLSGFETIMKVLNENLNAYQQQDGMMNMSPKPQRQRGHKNGQGENDNISVAVPKSRVQQNKSRELTAEDISLLKKMDEPYTEDTSEI
notes: also called rN; HCoV-OC43 rN; source: HEK293-FT, transfected, in crude lysate; not shown: 2X-StrepTag, C-terminal, kept
B2: CXCL11 (ligand)
chain: FPMFKRGRCLCIGPGVKAVKVADIEKASIMYPSNNCDKIEVIITLKENKGQRCLNPKSKQARLIIKKVERKNF
notes: recombinant human CXCL11; source: bought: PeproTech
B3: CCL26 (ligand)
chain: TRGSDISKTCCFQYSHKPLPWTWVRSYEFTSNSCSQRAVIFTTKRGKKVCTHPRKKWVQKYISLLKTPKQL
notes: recombinant human CCL26; source: bought: PeproTech
B4: CCL21 (ligand)
chain: SDGGAQDCCLKYSQRKIPAKVVRSYRKQEPSLGCSIPAILFLPRKRSQAELCADPKELWVQQLMQHLDKTPSPQKPAQGCRKDRGASKTGKKGKGSKGCKRTERSQTPKGP
notes: recombinant human CCL21; source: bought: PeproTech
B5: CCL13 (ligand)
chain: not shown
notes: recombinant human CCL13; source: bought: PeproTech
B6: CXCL9 (ligand)
chain: TPVVRKGRCSCISTNQGTIHLQSLKDLKQFAPSPSCEKIEIIATLKNGVQTCLNPDSADVKELIKKWEKQVSQKKKQKNGKKHQKKKVLKVRKSQRSRQKKTT
notes: recombinant human CXCL9; source: bought: PeproTech
B7: CCL11 (ligand)
chain: not shown
notes: recombinant human CCL11; source: bought: PeproTech
B8: CXCL14 (ligand)
chain: SKCKCSRKGPKIRYSDVKKLEMKPKYPHCEEKMVIITTKSVSRYRGQEHCLHPKLQSTKRFIKWYNAWNEKRRVYEE
notes: recombinant human CXCL14; source: bought: PeproTech
B9: CCL5 (ligand)
chain: SPYSSDTTPCCFAYIARPLPRAHIKEYFYTSGKCSNPAVVFVTRKNRQVCANPEKKWVREYINSLEMS
notes: recombinant human CCL5; source: bought: PeproTech
B10: CXCL13 (ligand)
chain: VLEVYYTSLRCRCVQESSVFIPRRFIDRIQILPRGNGCPRKEIIVWKKNKSIVCVDPQAEWIQRMMEVLRKRSSSTLPVPVFKRKIP
notes: recombinant human CXCL13; source: bought: PeproTech
B11: IL-27 (complex)
chain 1: FPRPPGRPQLSLQELRREFTVSLHLARKLLSEVRGQAHRFAESHLPGVNLYLLPLGEQLPDVSLTFQAWRRLSDPERLCFISTTLQPFHALLGGLGTQGRWTNMERMQLWAMRLDLRDLQRHLRFQVLAAGFNLPEEEEEEEEEEEEERKGLLPGALGSALQGPAQVSWPQLLSTYRLLHSLELVLSRAVRELLLLSKAGHSVWPLGFPTLSPQP
chain 2: RKGPPAALTLPRVQCRASRYPIAVDCSWTLPPAPNSTSPVSFIATYRLGMAARGHSWPCLQQTPTSTSCTITDVQLFSMAPYVLNVTAVHPWGSSSSFVPFITEHIIKPDPPEGVRLSPLAERQLQVQWEPPGSWPFPEIFSLKYWIRYKRQGAARFHRVGPIEATSFILRAVRPRARYYVQVAAQDLTDYGELSDWSLPATATMSLGK
notes: source: bought: PeproTech
B12: CCL25 (ligand)
chain: QGVFEDCCLAYHYPIGWAVLRRAWTYRIQEVSGSCNLPAAIFYLPKRHRKVCGNPKSREVQRAMKLLDARNKVFAKLHHNTQTFQAGPHAVKKLSSGNSKLSSSKFSNPISSSKRNVSLLISANSGL
notes: recombinant human CCL25; source: bought: PeproTech
B13: CCL28 (ligand)
chain: SEAILPIASSCCTEVSHHISRRLLERVNMCRIQRADGDCDLAAVILHVKRRRICVSPHNHTVKQWMKVQAAKKNGKGNVCHRKKHHGKRNSNRAHQGKHETYGHKTPY
notes: recombinant human CCL28; source: bought: PeproTech

The target in one assay is T1, CXCL12α (human, UniProt P48061-2 22-89).
T1 construct: source: bought: PeproTech
T1 sequence (P48061 22-89): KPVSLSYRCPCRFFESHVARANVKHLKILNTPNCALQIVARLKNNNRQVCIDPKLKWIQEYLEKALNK
Put plainly: BLI. Conditions: one partner purified.
For orientation: Kd means the equilibrium constant for the complex coming apart. Higher therefore signals a looser complex. Usually koff stands for the first-order rate constant of dissociation. A word on the kon: it is a measure of how fast the partners come together. B1 gave a Kd of 0.46 nM, a koff of 3.7e-05 s⁻¹ and a kon of 62000 M⁻¹ s⁻¹.

In another assay the target is B1. In words: BLI. Conditions: one partner purified.
For B2, the Kd turned out to be 730 nM, the koff was found to be 0.012 s⁻¹ and the kon worked out at 18000 M⁻¹ s⁻¹.
In the same order, the values of B3 are 620 nM, 0.014 s⁻¹ and 20000 M⁻¹ s⁻¹.
In the same order, the values of B4 are 290 nM, 0.012 s⁻¹ and 67000 M⁻¹ s⁻¹.
In the same order, the values of B5 are 1600 nM, 0.025 s⁻¹ and 19000 M⁻¹ s⁻¹.
The molecule B6 gave a Kd of 29 nM, a koff of 0.0022 s⁻¹ and a kon of 82000 M⁻¹ s⁻¹.
Turning to B7, the Kd was determined as 1400 nM, the koff came to 0.021 s⁻¹ and the kon came out at 17000 M⁻¹ s⁻¹.
In the same order, the values of B8 are 580 nM, 0.0063 s⁻¹ and 12000 M⁻¹ s⁻¹.
In the same order, the values of B9 are 56000 nM, 0.015 s⁻¹ and 2100 M⁻¹ s⁻¹.
In the same order, the values of B10 are 140 nM, 0.0046 s⁻¹ and 44000 M⁻¹ s⁻¹.
Take B11: the Kd was 55 nM, the dissociation rate constant (koff) was found to be 0.0024 s⁻¹ and the kon is 51000 M⁻¹ s⁻¹.
Take B12: the Kd amounted to 610 nM, the koff was 0.0048 s⁻¹ and the kon came out at 8300 M⁻¹ s⁻¹.
In the same order, the values of B13 are 27 nM, 0.0015 s⁻¹ and 60000 M⁻¹ s⁻¹.

Source of the values: doi:10.1101/2023.02.24.529952 (bioRxiv, 2023).
